Where “and” joins values, the source holds several entries; their conditions need not be identical. Identical values can stand only once. Entries after “also recorded” stand apart in the source; their conditions may differ. Where no end group is shown, it is not given here. [ ]: non-standard residue; d: D form. 14C‑Gly = 14C labelled glycine
Tests used:
SARS-CoV-2 = assay: Antiviral assay, SARS-CoV-2 replication in Calu3 2B4 cells (RT-qPCR); format: cell-based; conditions: 24 h
[1] = Biodistribution of 14C-radiolabeled Peptide 1 in female rats; format: in vivo, SD rats
Method: Biodistribution [^14C]-radiolabeled Peptide 1 (SEQ ID NO. 1) in female rats: Five SD rats (195 and 200 g b.w.) with jugular vein catheters (JVC) were each injected with 200 μL of 5 mg/mL Peptide 1 (SEQ ID NO. 1) in saline containing ˜4 million CPM of [^14C]-Peptide 1. The ^14C-Peptide 1 (SEQ ID NO. 1) was created by substituting the natural glycine residue on position 1 of the cyclic peptide with a ^14C labeled glycine. The JVC line was cleaned with 70% isopropyl alcohol, and the line plug was removed. A new 25 G blunt needle with a 1 mL syringe containing injectable solutions was used for each injection. The JVC line was first cleared with 100 μL saline, followed by the Peptide 1 (SEQ ID NO. 1) solution, then cleared with an additional 100 μL of saline. Tissues and organs were harvested into separated vials and weighed. Small organs such as lymph nodes, kidneys, and heart/lungs were processed whole. Large organs (e.g., liver, muscles, subcutaneous fat pads) were sampled from representative areas or those of interest (e.g., subcutis at the injection site). Organs were then dissolved in 2 mL Solvable™ (Perkin Elmer 6NE9100) for up to 1 g of tissue. For a large section of skin and other organs, 4 or 6 mL were added. Vials were incubated in a 60° C. water bath for 18-22 hours, then removed and allowed to cool to room temperature. […]

TMPRSS2 [2] = biological target: T1, TMPRSS2 (Homo sapiens, UniProt O15393); assay: Cellular TMPRSS2 inhibition assay in Caco-2 cells; format: cell-based; set-up: using Caco-2 and Calu3 cells, both of which express surface TMPRSS2; endogenous in cells; host or cells: Caco-2 cells
Method: Caco-2 cells (1×10^5 per well) were incubated in 96 well plates with 0 to 50 μg/ml of the indicated peptide in the presence of a TMPRSS2 substrate (Boc-Leu-Gly-Arg-AMC) in 50 mM Tris-HCl, pH 7.4. Substrate conversion was monitored in a fluorescence plate reader for 2 hours and inhibition of enzyme activity was expressed relative to a solvent control.
(§1) TMPRSS2 inhibition assays. Peptides (0-50 μg/ml) were tested for their inhibitory activities against TMPRSS2 in cellular assays using Vero E6 cells, Caco-2 cells, or Calu-3 cells using standard conditions. TMPRSS2 activity was assayed in real time for 120 min by monitoring the cleavage of the TMPRSS2 substrate, Boc-Leu-Gly-Arg-AMC. Following the 2 h enzyme assay, cells were evaluated for viability using the CellTiter-Glo cellular toxicity assay.

TMPRSS2 [3] = biological target: T1, TMPRSS2; assay: Cellular TMPRSS2 inhibition assay in Calu3 cells; format: cell-based; set-up: endogenous in cells; host or cells: Calu3 (Calu-3) cells; conditions: Calu3 cells
Method: as §1

TMPRSS2 [4] = biological target: TMPRSS2 (UniProt O15393 1-492, limits assumed); assay: cell-based or functional assay
TMPRSS2 (UniProt O15393 1-492, limits assumed), sequence (O15393 whole entry): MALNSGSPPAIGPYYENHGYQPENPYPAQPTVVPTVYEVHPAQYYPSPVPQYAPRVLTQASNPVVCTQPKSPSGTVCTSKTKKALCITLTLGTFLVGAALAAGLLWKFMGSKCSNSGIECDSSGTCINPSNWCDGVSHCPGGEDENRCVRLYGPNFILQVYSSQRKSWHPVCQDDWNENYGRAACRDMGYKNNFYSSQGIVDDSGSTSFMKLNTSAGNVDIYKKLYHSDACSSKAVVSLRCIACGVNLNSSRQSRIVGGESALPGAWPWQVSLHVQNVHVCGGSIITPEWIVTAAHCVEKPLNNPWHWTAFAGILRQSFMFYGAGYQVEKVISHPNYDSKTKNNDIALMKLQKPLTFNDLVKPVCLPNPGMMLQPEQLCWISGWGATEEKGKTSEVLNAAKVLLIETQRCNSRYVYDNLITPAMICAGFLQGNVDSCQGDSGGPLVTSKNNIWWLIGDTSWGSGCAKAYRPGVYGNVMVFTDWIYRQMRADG

T1 sequence (O15393 whole entry): as above

Molecule: Peptide 2: naturally occurring cyclic peptide (theta defensin), SEQ ID NO. 2, FIG. 1A (GVCRCLCRRGVCRCLCRR; cyclic; listed as Macaca mulatta)
- SARS-CoV-2 viral replication (N gene expression relative to ACTB) (SARS-CoV-2): highly effective in blocking viral replication

Molecule: ^14C-Peptide 1: created by substituting the natural glycine residue on position 1 of the cyclic peptide with a 14C labeled glycine ([14C‑Gly]FCRCLCRRGVCRCICTR; not fully specified (bridges); also: cyclic; listed as Macaca mulatta)
- tissue distribution (density of 14C) ([1]; 1 h after i.v. administration): highest density measured in the liver, followed by the kidney
- 14C counts recovered in urine ([1]; single i.v. dose equivalent to 5 mg/kg, 24 h): 7% and 8.5%

Molecule: Peptide 5: naturally occurring cyclic peptide (theta defensin), SEQ ID NO. 5, FIG. 1B (GICRCLCRRGVCRCICVL; not fully specified (bridges); also: cyclic; listed as Macaca mulatta)
- TMPRSS2 inhibitory activity (TMPRSS2 [2]; highest concentration tested (50 μg/mL), cell line not stated): no TMPRSS2 inhibitory activity
- SARS-CoV-2 viral replication (N gene expression relative to ACTB) (SARS-CoV-2): no apparent antiviral effect; also recorded: inactive

Molecule: Peptide 3: naturally occurring cyclic peptide (theta defensin), SEQ ID NO. 3, FIG. 1A (GFCRCICTRGFCRCICTR; cyclic; listed as Macaca mulatta)
- inhibition of TMPRSS2 (TMPRSS2 [2]; Caco-2 cells, 0 to 50 μg/ml, FIG. 10): higher than Peptide 1
- inhibition of TMPRSS2 (TMPRSS2 [3]): similarly inhibited TMPRSS2

B1: Peptide 1 (SEQ ID NO. 1) (peptide)
peptide: cyclo(GFCRCLCRRGVCRCICTR)
modifications: disulfide (positions not given here); also: three disulfide bonds, pairing not given here
- IC50 of enzyme inhibition (cleavage of Boc-Leu-Gly-Arg-AMC by cells) (TMPRSS2 [4]): 6.5 to 8 µg/mL

Reference: US20240108702A1, “Use Of Naturally Occurring Cyclic Peptides For Treatment Of SARS-COV-2 Infection” (The University of Southern California, priority 2021, published 2024)
